Literature values as cited in PMC8256087.

Molecular target: FtsY (Escherichia coli) (UniProt P10121)
Sequence (P10121 2-497): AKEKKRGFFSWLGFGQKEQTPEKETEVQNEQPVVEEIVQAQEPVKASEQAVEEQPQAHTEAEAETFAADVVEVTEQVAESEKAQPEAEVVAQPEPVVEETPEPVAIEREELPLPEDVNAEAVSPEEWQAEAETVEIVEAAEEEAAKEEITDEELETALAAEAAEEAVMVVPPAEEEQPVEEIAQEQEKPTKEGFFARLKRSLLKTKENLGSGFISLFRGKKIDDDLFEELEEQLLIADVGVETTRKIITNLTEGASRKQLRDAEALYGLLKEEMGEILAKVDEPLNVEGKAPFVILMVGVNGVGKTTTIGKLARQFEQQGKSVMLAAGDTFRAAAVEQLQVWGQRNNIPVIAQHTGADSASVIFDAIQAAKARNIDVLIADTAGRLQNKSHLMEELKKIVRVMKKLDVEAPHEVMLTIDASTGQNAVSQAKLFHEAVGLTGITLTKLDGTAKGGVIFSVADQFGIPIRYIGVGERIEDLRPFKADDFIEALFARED

Sequence of SecYEG translocon (P0AGA2 whole entry): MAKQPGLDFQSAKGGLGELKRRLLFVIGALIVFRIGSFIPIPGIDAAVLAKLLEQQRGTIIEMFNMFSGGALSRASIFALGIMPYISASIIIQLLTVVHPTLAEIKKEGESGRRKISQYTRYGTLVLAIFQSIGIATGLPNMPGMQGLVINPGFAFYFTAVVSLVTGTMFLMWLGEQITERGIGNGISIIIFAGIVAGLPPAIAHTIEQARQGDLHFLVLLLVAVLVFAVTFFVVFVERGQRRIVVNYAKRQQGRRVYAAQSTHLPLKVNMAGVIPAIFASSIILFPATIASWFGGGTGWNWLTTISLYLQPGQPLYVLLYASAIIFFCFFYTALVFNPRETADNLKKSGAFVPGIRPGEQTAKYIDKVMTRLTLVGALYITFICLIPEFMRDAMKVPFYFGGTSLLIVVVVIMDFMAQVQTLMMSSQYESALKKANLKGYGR
Sequence of SecYEG translocon (P0AG96 whole entry, further chain): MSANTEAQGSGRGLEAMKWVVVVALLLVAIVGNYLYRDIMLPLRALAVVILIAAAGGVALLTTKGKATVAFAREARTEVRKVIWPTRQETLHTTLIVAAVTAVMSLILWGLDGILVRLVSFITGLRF
Sequence of SecYEG translocon (P0AG99 whole entry, further chain): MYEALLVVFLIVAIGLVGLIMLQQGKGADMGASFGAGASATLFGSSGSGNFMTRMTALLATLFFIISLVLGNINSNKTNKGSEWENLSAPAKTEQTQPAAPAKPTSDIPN

Substance: SecYEG translocon (from UniProt P0AGA2)
- Kd: 200 nM
